From US20050054024 come the findings set out here.

This data set deals with T1, 7-nitrobenz-2-oxa-1,3-diazole (NBD)-NH-Ser-Phe-Arg4-Lys-amide 2.
T1 sequence: SFRRRRK

As for recombinant human protein kinase C γ, the Km (Fluorescence assay) was found to be 30 µM, the Km (Radioactive assay) came to 5 µM, the kcat (Fluorescence assay) worked out at 3.17 s⁻¹ and the kcat (Radioactive assay) was determined as 3.5 s⁻¹. The kcat/Km (Fluorescence assay) was 105000 M⁻¹ s⁻¹ and the kcat/Km (Radioactive assay) was found to be 700000 M⁻¹ s⁻¹.
